Experimental findings from IntAct's records for PubMed 17024177 are described below.

One assay concerns the target sp1_human SP1 (UniProt P08047).
The target of the next assay is pdk1_human PDK1 (UniProt Q15118).
Chain of pdk1_human PDK1 (Q15118 whole entry, looked up): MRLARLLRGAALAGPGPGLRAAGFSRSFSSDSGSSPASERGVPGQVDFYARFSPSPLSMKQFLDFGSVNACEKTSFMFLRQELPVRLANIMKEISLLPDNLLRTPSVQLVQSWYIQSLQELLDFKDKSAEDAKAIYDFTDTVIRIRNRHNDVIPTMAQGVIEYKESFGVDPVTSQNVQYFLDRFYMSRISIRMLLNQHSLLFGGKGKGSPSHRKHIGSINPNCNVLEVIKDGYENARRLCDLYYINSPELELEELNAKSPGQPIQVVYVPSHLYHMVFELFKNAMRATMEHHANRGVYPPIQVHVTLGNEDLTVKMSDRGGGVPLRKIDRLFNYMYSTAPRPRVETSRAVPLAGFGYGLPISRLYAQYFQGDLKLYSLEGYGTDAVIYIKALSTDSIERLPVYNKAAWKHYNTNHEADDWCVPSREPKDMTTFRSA

Chain of Endothelial PAS domain-containing protein 1 (Homo sapiens), Q99814 P329T (Q99814 whole entry P329T, the tested form may be a part): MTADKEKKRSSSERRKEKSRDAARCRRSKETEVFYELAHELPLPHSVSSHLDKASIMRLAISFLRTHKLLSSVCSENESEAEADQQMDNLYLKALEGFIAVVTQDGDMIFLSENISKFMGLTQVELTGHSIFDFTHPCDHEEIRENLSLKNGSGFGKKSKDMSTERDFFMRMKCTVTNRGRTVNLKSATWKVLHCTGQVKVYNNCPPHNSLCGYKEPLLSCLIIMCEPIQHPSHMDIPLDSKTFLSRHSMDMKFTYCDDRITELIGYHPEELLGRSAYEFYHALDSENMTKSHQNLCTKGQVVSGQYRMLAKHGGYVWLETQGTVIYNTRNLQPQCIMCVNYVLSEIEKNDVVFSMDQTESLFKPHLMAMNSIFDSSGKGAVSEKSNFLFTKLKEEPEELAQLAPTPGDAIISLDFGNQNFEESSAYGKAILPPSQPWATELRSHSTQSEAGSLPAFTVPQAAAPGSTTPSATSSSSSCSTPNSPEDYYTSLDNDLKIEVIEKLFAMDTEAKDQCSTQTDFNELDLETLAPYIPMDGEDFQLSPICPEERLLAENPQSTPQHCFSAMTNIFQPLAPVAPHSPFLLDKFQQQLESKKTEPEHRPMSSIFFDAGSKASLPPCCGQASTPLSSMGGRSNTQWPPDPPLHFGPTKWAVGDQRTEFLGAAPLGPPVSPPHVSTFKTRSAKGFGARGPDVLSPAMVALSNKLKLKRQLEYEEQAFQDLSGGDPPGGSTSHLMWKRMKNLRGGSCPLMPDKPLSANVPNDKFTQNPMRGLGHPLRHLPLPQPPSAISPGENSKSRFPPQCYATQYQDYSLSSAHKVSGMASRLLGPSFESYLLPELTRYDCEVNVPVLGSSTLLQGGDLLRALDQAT
Chain of Endothelial PAS domain-containing protein 1 (Homo sapiens), Q99814 T324V (Q99814 whole entry T324V, the tested form may be a part): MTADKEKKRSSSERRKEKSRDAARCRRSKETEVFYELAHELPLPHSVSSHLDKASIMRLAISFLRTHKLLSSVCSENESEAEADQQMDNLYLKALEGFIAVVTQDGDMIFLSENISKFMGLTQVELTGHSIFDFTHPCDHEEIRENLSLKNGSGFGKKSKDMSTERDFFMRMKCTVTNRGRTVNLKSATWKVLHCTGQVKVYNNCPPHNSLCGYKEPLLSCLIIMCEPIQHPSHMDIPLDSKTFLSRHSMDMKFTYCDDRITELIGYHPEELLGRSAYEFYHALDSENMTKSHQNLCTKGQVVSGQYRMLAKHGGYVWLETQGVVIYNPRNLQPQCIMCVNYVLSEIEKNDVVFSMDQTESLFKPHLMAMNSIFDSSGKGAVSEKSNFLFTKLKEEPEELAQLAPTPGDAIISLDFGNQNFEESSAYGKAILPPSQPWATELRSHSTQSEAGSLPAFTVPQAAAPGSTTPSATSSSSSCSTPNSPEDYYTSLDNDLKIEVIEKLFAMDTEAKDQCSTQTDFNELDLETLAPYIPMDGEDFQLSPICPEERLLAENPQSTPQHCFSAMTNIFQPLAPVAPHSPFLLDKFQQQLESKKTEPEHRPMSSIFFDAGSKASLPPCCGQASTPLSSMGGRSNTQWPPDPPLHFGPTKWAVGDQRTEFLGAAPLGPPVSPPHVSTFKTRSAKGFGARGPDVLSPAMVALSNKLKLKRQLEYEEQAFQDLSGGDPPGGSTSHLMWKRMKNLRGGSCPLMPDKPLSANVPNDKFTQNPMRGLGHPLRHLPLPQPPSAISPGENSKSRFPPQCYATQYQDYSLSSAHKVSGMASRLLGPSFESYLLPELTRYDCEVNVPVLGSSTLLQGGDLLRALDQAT
Chain of sp1_human SP1 (P08047 whole entry): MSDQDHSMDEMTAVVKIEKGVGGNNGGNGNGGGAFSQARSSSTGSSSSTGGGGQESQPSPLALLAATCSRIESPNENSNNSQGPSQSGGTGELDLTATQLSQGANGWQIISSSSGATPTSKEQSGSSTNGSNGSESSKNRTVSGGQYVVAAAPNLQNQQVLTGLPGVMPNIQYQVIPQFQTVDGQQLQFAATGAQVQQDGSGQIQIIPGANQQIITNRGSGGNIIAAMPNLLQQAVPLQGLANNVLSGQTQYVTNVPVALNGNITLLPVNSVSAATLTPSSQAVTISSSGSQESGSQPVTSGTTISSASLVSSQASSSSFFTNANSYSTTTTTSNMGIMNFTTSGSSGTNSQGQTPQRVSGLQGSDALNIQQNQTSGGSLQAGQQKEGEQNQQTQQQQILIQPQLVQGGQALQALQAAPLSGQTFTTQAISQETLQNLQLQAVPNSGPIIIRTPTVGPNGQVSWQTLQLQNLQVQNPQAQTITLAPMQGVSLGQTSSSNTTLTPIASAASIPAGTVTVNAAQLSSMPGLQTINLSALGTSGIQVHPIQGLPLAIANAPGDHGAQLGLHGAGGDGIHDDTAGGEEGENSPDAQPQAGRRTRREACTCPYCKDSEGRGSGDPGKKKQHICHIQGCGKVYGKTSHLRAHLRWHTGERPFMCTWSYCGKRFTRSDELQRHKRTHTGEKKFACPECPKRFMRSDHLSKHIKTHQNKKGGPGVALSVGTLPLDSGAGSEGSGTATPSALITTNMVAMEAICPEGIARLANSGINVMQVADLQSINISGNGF

Take “Endothelial PAS domain-containing protein 1 (Homo sapiens), Q99814 P329T”: in the assay with sp1_human SP1, the “effect of a mutation on the interaction” value is “increasing interaction”.
As for “Endothelial PAS domain-containing protein 1 (Homo sapiens), Q99814 T324V”, in the assay with pdk1_human PDK1, the “effect of a mutation on the interaction” value is on record as “disrupting interaction”.
